According to patent US20060234906A1, “Structure of a complex of retinoblastoma protein bound to e2f, and uses thereof” (priority 2002, published 2006):

Key:
RbAB [1] = biological target: T1, RbAB (Homo sapiens, UniProt P06400); test: Isothermal titration calorimetry of E2F constructs binding to RbAB; conditions: ITC, binding to pRbAB
T1 construct: residues 372 to 589 of the A domain and 636 to 787 of the B domain; GST (with Prescission protease site) (N, cleaved yes); engineered thrombin site (LVPRGS) at the A-domain end of the A-B linker (C, cleaved yes); engineered thrombin site (LVPRGS) at the B-domain end of the A-B linker (N, cleaved yes); made in house; host or cells: E. coli
T1 sequence (P06400 372-589): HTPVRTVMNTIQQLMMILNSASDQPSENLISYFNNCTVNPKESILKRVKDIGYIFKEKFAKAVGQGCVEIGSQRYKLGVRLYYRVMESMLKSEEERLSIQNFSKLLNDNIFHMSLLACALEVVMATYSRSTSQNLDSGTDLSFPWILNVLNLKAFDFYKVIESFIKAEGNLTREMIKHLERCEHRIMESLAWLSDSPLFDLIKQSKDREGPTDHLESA
T1 sequence (P06400 636-787): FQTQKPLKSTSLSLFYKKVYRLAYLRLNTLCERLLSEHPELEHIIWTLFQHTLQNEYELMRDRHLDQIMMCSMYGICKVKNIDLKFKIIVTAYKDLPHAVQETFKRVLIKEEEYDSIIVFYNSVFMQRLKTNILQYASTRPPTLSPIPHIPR
Description: The panel represents the experiment where E2F(243-437) is titrated into RbAB.
(B) Summary of dissociation constants obtained by ITC measurements. The quoted errors are those produced by fitting the data to a two-state model. For the interaction of E2F(243-437) to RbAB and RbABC the affinities are too high to measure reliably and we have therefore quoted the upper limits of the dissociation constants.
Binding of the various E2F constructs to RbAB and RbABC was measured by isothermal titration calorimetry using a MicroCal Omega VP-ITC machine (MicroCal Inc., Northampton, USA). The E2F constructs at a concentration between 100-150 μM were titrated into 12-15 μM Rb at a temperature of 22° C. Proteins were dialysed against 50 mM Tris pH 7.6, 100 mM NaCl and 1 mM TCEP. After subtraction of the dilution heats, calorimetric data was analysed using the evaluation software MicroCal Origin v5.0 (MicroCal Software Inc.). For all of the titrations, the stoichiometry of ligand binding to Rb was very close to 1.0. For E2F(243-437) binding to Rb, the binding affinity and the heat change associated with binding were such that we could only establish that binding was tighter than 10 nM.

RbAB [2] = biological target: T2, RbAB (Homo sapiens, UniProt P06400); test: RbAB
T2 construct: residues 372 to 589 of the A domain and 636 to 787 of the B domain; GST (with Prescission protease site) (N, cleaved yes); engineered thrombin site (LVPRGS) at the A-domain end of the A-B linker (C, cleaved yes); engineered thrombin site (LVPRGS) at the B-domain end of the A-B linker (N, cleaved yes); made in house; host or cells: E. coli
T2 sequence (P06400 whole entry, looked up): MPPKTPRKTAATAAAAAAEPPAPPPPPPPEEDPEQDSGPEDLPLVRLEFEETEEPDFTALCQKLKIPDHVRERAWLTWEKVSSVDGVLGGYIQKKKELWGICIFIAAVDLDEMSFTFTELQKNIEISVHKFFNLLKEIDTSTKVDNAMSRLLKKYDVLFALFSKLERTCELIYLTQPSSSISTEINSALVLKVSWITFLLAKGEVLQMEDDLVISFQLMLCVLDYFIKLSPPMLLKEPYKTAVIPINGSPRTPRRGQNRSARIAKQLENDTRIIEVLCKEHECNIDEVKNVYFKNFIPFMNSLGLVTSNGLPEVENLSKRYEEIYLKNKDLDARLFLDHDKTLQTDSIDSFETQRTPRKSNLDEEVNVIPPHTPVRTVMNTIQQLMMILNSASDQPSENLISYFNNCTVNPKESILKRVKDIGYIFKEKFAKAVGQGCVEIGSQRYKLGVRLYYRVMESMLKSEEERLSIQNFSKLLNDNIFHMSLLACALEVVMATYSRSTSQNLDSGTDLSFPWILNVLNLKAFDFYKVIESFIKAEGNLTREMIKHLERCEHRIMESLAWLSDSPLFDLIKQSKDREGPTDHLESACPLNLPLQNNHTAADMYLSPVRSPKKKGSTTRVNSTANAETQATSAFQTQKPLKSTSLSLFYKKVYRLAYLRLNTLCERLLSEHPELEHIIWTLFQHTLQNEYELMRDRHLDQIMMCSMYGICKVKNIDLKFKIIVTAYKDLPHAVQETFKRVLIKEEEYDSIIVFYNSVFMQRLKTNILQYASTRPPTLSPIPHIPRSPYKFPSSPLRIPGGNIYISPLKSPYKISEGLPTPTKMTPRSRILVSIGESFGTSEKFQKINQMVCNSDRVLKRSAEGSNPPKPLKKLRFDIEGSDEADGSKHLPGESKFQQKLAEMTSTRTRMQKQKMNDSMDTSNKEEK
Text: (§1) Table printed on a drawing sheet, FIG. 2B
(§2) The patent's description of the figure: FIG. 2.
(§3) First copying reader's note: Binding constants of E2F fragments to the Rb constructs RbAB and RbABC; the error is printed in the same cell as the value.
Where the first naming reader finds the target: head: RbAB

RbABC = biological target: T3, RbABC (Homo sapiens, UniProt P06400); test: RbABC
T3 construct: His6-RbABC (RESIDUES 380-929); made in house; host or cells: E. coli
T3 sequence (P06400 whole entry, looked up): T2 sequence (P06400 whole entry, looked up)
Text: as §1, §2, §3
Where the first naming reader finds the target: head: RbABC

B1: E2F(243-437): Recombinant human E2F1(243-437) expressed in E. coli (protein, UniProt Q01094 243-437, looked up, fragment)
chain: LAYVTCQDLRSIADPAEQMVMVIKAPPETQLQAVDSSENFQISLKSKQGPIDVFLCPEETVGGISPGKTPSQEVTSEEENRATDSATIVSPPPSSPPSSLTTDPSQSLLSLEQEPLLSRMGSLRAPVDEDRLSPLVAADSLLEHVREDFSGLLPEEFISLSPPHEALDYHFGLEEGEGIRDLFDCDFGDLTPLDF
binds stronger than either of the two shorter E2F fragments (RbAB [1]): at least 16 fold
Kd (RbAB [2]): < 10 nM
Kd (RbABC): < 10 nM
